According to paper PMC7532196:

Legend:
Assay in all cases: EMSA
Details in all cases: EMSA: 30 ng probe in 20 ul, 10 mM Tris-HCl pH 7.4, 50 mM KCl, 5 mM MgCl2, 10% glycerol, room temperature 30 min, 6% PAGE
[1] = target: T1, MetR (Pseudomonas savastanoi pv. phaseolicola 1448A (P. syringae)) (UniProt Q48EZ0)
T1 sequence: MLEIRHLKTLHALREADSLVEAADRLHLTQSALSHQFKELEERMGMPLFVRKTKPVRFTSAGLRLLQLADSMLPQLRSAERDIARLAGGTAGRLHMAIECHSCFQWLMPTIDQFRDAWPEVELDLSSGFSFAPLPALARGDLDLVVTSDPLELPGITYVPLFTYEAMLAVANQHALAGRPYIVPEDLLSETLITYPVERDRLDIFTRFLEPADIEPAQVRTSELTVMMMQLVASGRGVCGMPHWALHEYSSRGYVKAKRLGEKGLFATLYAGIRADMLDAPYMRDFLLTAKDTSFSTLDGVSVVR

[2] = target: T2, PcaQ (Pseudomonas savastanoi pv. phaseolicola 1448A (P. syringae)) (UniProt Q48JW3)
T2 sequence: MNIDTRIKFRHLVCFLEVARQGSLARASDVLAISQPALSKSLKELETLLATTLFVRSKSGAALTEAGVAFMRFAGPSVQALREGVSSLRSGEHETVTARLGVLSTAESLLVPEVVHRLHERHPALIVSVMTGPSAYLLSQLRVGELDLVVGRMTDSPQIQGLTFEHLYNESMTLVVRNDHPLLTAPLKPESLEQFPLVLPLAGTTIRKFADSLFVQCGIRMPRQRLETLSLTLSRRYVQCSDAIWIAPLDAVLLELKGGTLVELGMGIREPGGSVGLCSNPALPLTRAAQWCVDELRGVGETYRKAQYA

[3] = target: T3, PSPPH_3297 (Pseudomonas savastanoi pv. phaseolicola 1448A (P. syringae)) (UniProt Q48GM7)
T3 sequence: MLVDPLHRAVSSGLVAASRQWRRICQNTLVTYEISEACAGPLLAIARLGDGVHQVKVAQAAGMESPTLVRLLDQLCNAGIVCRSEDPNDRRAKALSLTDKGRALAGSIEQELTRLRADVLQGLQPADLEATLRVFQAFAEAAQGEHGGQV

GATGGGTGTTCGGTGATGACTATATGACATCACGGAACCGACTTTAACAGATGAAAAAAATTCAATTACAGGCGAGGTACAGGTTGATCGGCCGCAGACGGCTACTTTTTAAGCGCTATCGGTCGCGCAGCCCCATAAGATAAAGGGCCTGCTCATTTGTATGCA (double strand) [PSPPH_4247 promoter]
binding [1]: binds

TCAAGAATTACAGTTGTGCCTTGCGTCATATGTGATCTGCTTATATGTATATGAAAAAAACTCATTATGAGTCAGTCTTGTATAACGTATTTAATACGGCCCTTTAATCAAACTACAAACACTTTTTTCAGGGGATTTCTGTGAA (double strand) [PSPPH_1024 promoter]
binding [1]: binds

ACAATTAGTTGAATAATTTCCTTGGATATGAGGAAGGCGGGCTACAGGTGAACGTATAAAAAATCATGGTTTTAGTTATGCATAACCATGAAAATAAAGGAATTTTTATTAAATGTTGGTATTAATCAAAGGCACGTTTAATCACGCCGTCTA (double strand) [katB promoter]
binding [2]: binds

CATAGGGGTTGCCAAATGTGTCGAATGCCCCATAAGGTAGCGCTGTCTCATGGAAGGTGACAATGCTTTAT (double strand) [gntR negative control]
binding [1]: no binding

TCTACGCCCCCTCAAAAAACCCTTTCGGGCGTCCCTGCAACCCAAAAAGCCCCACTGGGCAGTTACGGGTTGACTGTAAGAACTTGTTACGAGATATTAGTTAGCATACTACTAATATCCTCCCTAACAATATTGTTCCTAACTAAATTGTTCACGACTCAG (double strand) [PSPPH_3297 promoter]
binding [3]: binds

GGTGCGGCATATCCCGTAGGCTCTGTCATTAAAAATGGCACAATTCTACTAGGCCGTCATTGCCTCCAACATGAATGATTTTCATGCAAAAGCCGCAGCACCACCAAAACCGTTCCGGTTTGCTATCATCCCGTTCTTTAAAGTA (double strand) [PSPPH_2621 promoter]
binding [1]: binds

GTACCTGCCAGAATGTTGAGGGTGATATTGATCCATAACCTTAGCCTCCTACGCCTCTTTAGCTGGACAGCAAAAATTACCGAATTAGCTAAACATTAGGAATAATTCTAGCATTAGCTGTTCAGCTAACAAAGGCCTAAAAG (double strand) [PSPPH_0985 promoter]
binding [2]: binds
